{"source": "patent US8980609B2", "about": "“Uniformly conjugated serine hydrolases” (Israel Institute for Biological Research, priority 2005, dated 2015)", "molecules": {"B1": {"name": "serum derived human BChE: serum derived human butyrylcholinesterase (protein, UniProt P06276 29-602, looked up)", "Cholinesterase": "EDDIIIATKNGKVRGMNLTVFGGTVTAFLGIPYAQPPLGRLRFKKPQSLTKWSDIWNATKYANSCCQNIDQSFPGFHGSEMWNPNTDLSEDCLYLNVWIPAPKPKNATVLIWIYGGGFQTGTSSLHVYDGKFLARVERVIVVSMNYRVGALGFLALPGNPEAPGNMGLFDQQLALQWVQKNIAAFGGNPKSVTLFGESAGAASVSLHLLSPGSHSLFTRAILQSGSFNAPWAVTSLYEARNRTLNLAKLTGCSRENETEIIKCLRNKDPQEILLNEAFVVPYGTPLSVNFGPTVDGDFLTDMPDILLELGQFKKTQILVGVNKDEGTAFLVYGAPGFSKDNNSIITRKEFQEGLKIFFPGVSEFGKESILFHYTDWVDDQRPENYREALGDVVGDYNFICPALEFTKKFSEWGNNAFFYYFEHRSSKLPWPEWMGVMHGYEIEFVFGLPLERRDNYTKAEEILSRSIVKRWANFAKYGNPNETQNNSTSWPVFKSTEQKYLTLNTESTRIMTKLRAQQCRFWTSFFPKVLEMTGNIDEAEWEWKAGFHRWNNYMMDWKNQFNDYTSKKESCVGL"}, "B2": {"name": "fetal bovine AChE: serum derived fetal bovine AChE; heterologous FBS-AChE in the monkey study (protein, UniProt P23795 31-613, looked up)", "Acetylcholinesterase": "EGPEDPELLVMVRGGRLRGLRLMAPRGPVSAFLGIPFAEPPVGPRRFLPPEPKRPWPGVLNATAFQSVCYQYVDTLYPGFEGTEMWNPNRELSEDCLYLNVWTPYPRPSSPTPVLVWIYGGGFYSGASSLDVYDGRFLTQAEGTVLVSMNYRVGAFGFLALPGSREAPGNVGLLDQRLALQWVQENVAAFGGDPTSVTLFGESAGAASVGMHLLSPPSRGLFHRAVLQSGAPNGPWATVGVGEARRRATLLARLVGCPPGGAGGNDTELVACLRARPAQDLVDHEWRVLPQESVFRFSFVPVVDGDFLSDTPEALINAGDFHGLQVLVGVVKDEGSYFLVYGAPGFSKDNESLISRAQFLAGVRVGVPQASDLAAEAVVLHYTDWLHPEDPARLREALSDVVGDHNVVCPVAQLAGRLAAQGARVYAYIFEHRASTLSWPLWMGVPHGYEIEFIFGLPLEPSLNYTIEERTFAQRLMRYWANFARTGDPNDPRDPKAPQWPPYTAGAQQYVSLNLRPLEVRRGLRAQACAFWNRFLPKLLSATDTLDEAERQWKAEFHRWSSYMVHWKNQFDHYSKQDRCSDL"}}, "key": {"[1]": {"conditions": "mice, earlier reports; cited from earlier work"}, "anti-AChE antibody": {"test_system": "anti-AChE antibody", "test": "Immunogenicity in rhesus macaques: anti-AChE antibody formation by ELISA after repeated monthly administration", "format": "in vivo", "conditions": "monthly intervals, no adjuvant", "text": "Anti-AChE antibody levels elicited by PEGylated rHuAChE, were compared to those induced by nonmodified rHuAChE or FBS-AChE, following their administration to rhesus macaques. To this end, non-modified or PEG-modified AChE or the heterologous FBS-AChE (no adjuvant included) were repeatedly administered to monkeys at monthly intervals, and anti-AChE antibody formation was monitored by ELISA (FIG. 8)."}}, "data": [{"molecule": "horse BChE: serum derived horse butyrylcholinesterase [reference compound]", "values": [{"measurement": "MRT (mean residual time)", "setting": "[1]", "value": "approximately 1,400 minutes"}]}, {"molecule": "B1", "values": [{"measurement": "MRT (mean residual time)", "setting": "[1]", "value": "approximately 1,400 minutes"}]}, {"molecule": "B2", "values": [{"measurement": "development of anti-AChE antibody after repeated administrations", "setting": "anti-AChE antibody", "value": "following the third administration"}, {"measurement": "MRT (mean residual time)", "setting": "[1]", "value": "approximately 1,400 minutes"}]}]}
